Measured values: doi:10.1101/2020.04.20.051433

Target: Cpn60 (chloroplast chaperonin) of pea stroma (P. sativum (endogenous in pea chloroplasts))
Test: native gel or EMSA

Plsp1 Δβ1-2 imported into isolated chloroplasts (from UniProt Q8H0W1 68-291) (domain or fragment)
reduction of the 700-kDa band against full-length Plsp1: 80%
